According to article PMC12123718 (Respiratory Research, 2025):

Molecular target: recombinant human PKM2 (rhPKM2) (human, UniProt P14618 1-531)
Assay: SPR

recombinant human PKM2 (rhPKM2), sequence (P14618 whole entry): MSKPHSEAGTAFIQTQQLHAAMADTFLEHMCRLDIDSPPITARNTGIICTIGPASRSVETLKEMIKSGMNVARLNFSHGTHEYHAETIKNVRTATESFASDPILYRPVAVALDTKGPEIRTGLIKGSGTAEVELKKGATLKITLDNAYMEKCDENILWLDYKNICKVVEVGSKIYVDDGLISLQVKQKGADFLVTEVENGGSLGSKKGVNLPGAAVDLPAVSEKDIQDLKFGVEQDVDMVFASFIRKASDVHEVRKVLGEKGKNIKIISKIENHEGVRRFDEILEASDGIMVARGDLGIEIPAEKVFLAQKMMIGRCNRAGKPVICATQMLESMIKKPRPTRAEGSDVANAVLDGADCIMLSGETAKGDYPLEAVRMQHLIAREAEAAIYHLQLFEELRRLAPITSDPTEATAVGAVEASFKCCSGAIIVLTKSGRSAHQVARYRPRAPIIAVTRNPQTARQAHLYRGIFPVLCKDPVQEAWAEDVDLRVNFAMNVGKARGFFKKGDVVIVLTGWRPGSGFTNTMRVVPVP

- Kd: 50.6 nM
B1: recombinant hPFN2 (rhPFN2) (natural protein, human, UniProt P35080 1-140, looked up)
chain: MAGWQSYVDNLMCDGCCQEAAIVGYCDAKYVWAATAGGVFQSITPIEIDMIVGKDREGFFTNGLTLGAKKCSVIRDSLYVDGDCTMDIRTKSQGGEPTYNVAVGRAGRVLVFVMGKEGVHGGGLNKKAYSMAKYLRDSGF
